Sequences and labels used below:
B1: sp¦Q8K0L9¦ZBT20_MOUSE (protein, UniProt Q8K0L9 1-741, looked up)
Zinc finger and BTB …: MLERKKPKTAENQKASEENEITQPGGSSAKPALPCLNFEAVLSPAPALIHSTHSLTNSHAHTGSSDCDISCKGMTERIHSINLHNFSNSVLETLNEQRNRGHFCDVTVRIHGSMLRAHRCVLAAGSPFFQDKLLLGYSDIEIPSVVSVQSVQKLIDFMYSGVLRVSQSEALQILTAASILQIKTVIDECTRIVSQNVGDVFPGIQDSGQDTPRGTPESGTSGQSSDTESGYLQSHPQHSVDRIYSALYACSMQNGSGERSFYSGAVVSHHETALGLPRDHHMEDPSWITRIHERSQQMERYLSTTPETTHCRKQPRPVRIQTLVGNIHIKQEMEDDYDYYGQQRVQILERNESEECTEDTDQAEGTESEPKGESFDSGVSSSIGTEPDSVEQQFGAAAPRDGQAEPAQPEQAAEAPAESSAQPNQLEPGASSPERSNESEMDNTVITVSNSSDKGVLQQPSVNTSIGQPLPSTQLYLRQTETLTSNLRMPLTLTSNTQVIGTAGNTYLPALFTTQPAGSGPKPFLFSLPQPLTGQQTQFVTVSQPGLSTFTAQLPAPQPLASSAGHSTASGQGDKKPYECTLCNKTFTAKQNYVKHMFVHTGEKPHQCSICWRSFSLKDYLIKHMVTHTGVRAYQCSICNKRFTQKSSLNVHMRLHRGEKSYECYICKKKFSHKTLLERHVALHSASNGTPPAGTPPGARAGPPGVVACTEGTTYVCSVCPAKFDQIEQFNDHMRMHVSDG
B2: sp¦A3KGB4¦TBC8B_MOUSE (protein, UniProt A3KGB4 1-1114, looked up)
TBC1 domain family member 8B: MWLKPEEVLLKNALKLWLMERSNEYFVLQRRRGYGEEGGGGLTGLLVGTLDSVLDSTAKVAPFRILHQTPDSQVYLSIACGANREEITKHWDWLEQNIMKTLSVFDSNEDITNFVQGKIRGLIAEEGKQSFAKEDDPEKFREALLKFEKSFGLPEQEKLVTYYSCSYWRGRVPCQGWLYLSTNFLSFYSFLLGSEIKLIISWDAISKLEKTSTVILTESIHVCSQGENHYFSMFLHINETYLLMEQLANYAIKRLFDKETFDNDPVLDDPLQITKRGLEYRAHSEQFKAFFRLPKEETLKEVHECFLWVPFSHFSSHGKMCISENYICFASQDGNLCSVIIPLREVLAIDKTDDSNRSVIISIKGKTAFRFSELKDFEQLVAKLRLKCRAASTQDDVSTEVAVSSDSTGPSENFEEQPLTCPKECSKTVNTEALMTVFHPQNLENLDSKMLKEKMKEQSWNILFSECGRGVSMFRTKKTRDLVVRGIPETLRGELWMLFSGAVNDMATNPGYYAEVVEQSLGTSNLATEEIERDLRRSLPEHPAFQSDTGISALRRVLTAYAYRNPKIGYCQAMNILTSVLLLYAKEEEAFWLLVAVCERMLPDYFNRRIIGALVDQAVFEELIRDHLPQLTDHMTDMTFFSSVSLSWFLTLFISVLPIESAVNVVDCFFYDGIKAILQLGLAILDYNLDKLLTCKDDAEAVTALNRFFDNVINKDSPLPSNVQQGSNISNEKSDHTKVDITDLIKESNEKYGSIRYEDIHSMRCRNRLYVIQTLEETTKQNVLRVVSQDVKMSLQELDELYVIFKKELFISCYWYLSCPGLKHHDPSLPYLEQYQIDCQQFRVLYHLLSPWAHSANRDSLALWTFRLLDENSDCLINFKEFSSAIDIMYNGSFTDKLKLLFKLHIPPAYTEVMSKTSSKGDELSTEELLYFSQLQVSKPADEKETESGRNSPEKGKGKIDIQAYLSQWQDELLKKEETIKDLPRMNQSQFIQFSKTLYNLFHEDPEEESLYQAIAIVTNLLLRMEEVGRKLHSPASSASTARDSGPSEGNAESSVKKDLPSPREEHQWSFAFEQILASLLNEPALVRFFERPLDLKAKLENAKSSQLRSRTKM
B3: sp¦Q80TF3¦PCD19_MOUSE (protein, UniProt Q80TF3 22-1145, looked up)
Protocadherin-19: LINLKYSVEEEQRAGTVIANVAKDAREAGFALDPRQASAFRVVSNSAPHLVDINPSSGLLVTKQKIDRDLLCRQSPKCIISLEVMSSSMEICVIKVEIKDLNDNAPSFPAAQIELEISEAASPGTRIPLDSAYDPDSGSFGVQTYELTPNELFGLEIKTRGDGSRFAELVVEKSLDRETQSHYSFRITALDGGDPPHMGTVGLSIKVTDSNDNNPVFGESTYSVSVPENSPPNTPVIRLNASDPDEGTNGQVVYSFYGYVNDRTRELFQIDPHSGLVTVTGALDYEEGHVYELDVQAKDLGPNSIPAHCKVTVSVLDTNDNPPIINLLSVNSELVEVSESAPPGYVIALVRVSDRDSGLNGRVQCRLLGNVPFRLQEYESFSTILVDGRLDREQHDQYNLTIQARDSGVPMLQSAKSFTVRITDENDNHPHFSKPYYQVIVQENNTPGAYLLSVSARDPDMGLNGSVSYQIVPSQVRDMPVFTYVSINPNSGDIYALRSFNHEQTKAFEFKVLAKDGGLPSLQSNATVRVIILDVNDNTPVITAPPLINGTAEVYIPRNSGIGYLVTVVKADDYDEGENGRVTYDMTEGDRGFFEIDQVNGEVRTTRTFNENSKPSYELIVVAHDHGKTSLSASALVLIYLSPALDAQESMGSVNLSLIFIIALGSIAGILFVTMIFVAIKCKRDNKEIRTYNCSNCLTITCLLGCFIKGQNSKCLHCISVSPNSEEQDKKAEEKVSLRGKRIAEYSYGHQKKSSKKKKISKNDIRLVPRDVEETDKMNVVSCSSLTSSLNYFDYHQQTLPLGCRRSESTFLNVENQNTRNTTASHIYHHSFNSQGPQQPDLIINGVPLPETENYSFDSNYVNSRAHLIKSSSTFKDLEGNSLKDSGHEESDQTDSEHDVQRSLYCDTAVNDVLNTSVTSMGSQMPDHDQNEGFHCREECRILGHSDRCWMPRNPMPTRSKSPEHVRNIIALSIEATAADVEAYDDCGPTKRTFATFGKDVSSHRAEERPILKGKRTVDVTICSPKVNSAIREAGNGCEAISPVTSPLHLKSPLPTKPSISYTVALAPPAHDLEHHANSGASRPSEAEPRGADNEKVMHEVNPIRKDGRDKESPSVKRLKDIVL
B4: sp¦Q71FD5¦ZNRF2_MOUSE (protein, UniProt Q71FD5 2-238, looked up)
E3 ubiquitin-protein ligase …: GAKQSGPAANGRTRAYSGSDLPSGTGSGGGGADGARAARFAAPVSGAQQPSASAGAAAAAAAAASAPAAPRSRSLGGAVGSASGGRAAQSAFSIPSAGGGGGPYGSQDSVHSSPEDSVGARDRDRPAGGGPGGPRLVIGSLPAHLSPHLFGGFKCPVCSKFVPSDEMDLHLVMCLTKPRITYNEDVLSKDTGECAICLEELQQGDTIARLPCLCIYHKGCIDEWFEVNRSCPEHPSD
B5: sp¦Q9JJR9¦NRIP3_MOUSE (protein, UniProt Q9JJR9 1-240, looked up)
Nuclear receptor-interacting …: MFYSGLLTEGGRKETDMREAASLRQQRRMKQAVQFIHKDSADLLPLDGLKKLGSSKDTQPHNILQRRLMETNLSKLRSTRVPWASKTNKFNQAKSEGLKKCEDEDMILVSCQCAGKDVKALVDTGCQYNLISSACVDRLGLKDHVKSHKHEGEKLSLPRHLKVVGQIEHLMITVGSLRLDCQAAVVDDNEKSLSLGLQTLRSLKCIINLDKHRLIVGKTDKEEIPFVETVSVNDDNTSEA
B6: sp¦Q80TS7¦DEND_MOUSE (protein, UniProt Q80TS7 1-710, looked up)
Dendrin: MLDGPLFSEGPDSPRELQDEESGSCLWVQKSKLLVIEVKTISCHYSRRAPSRQSMDIQASYWARGPQSRTCRLRPGSPEPPPRRPWASRVLQEATNWRAGPPAEVRAREQEKRKAASQEREAKETERKRRKAGGARRSPLGQPRPEPRNALRAAQPTGFPVFSRPERFGQVGRAPRPSVLPQGDPGVAWAGPWGGRRPGPPSYEAHLLLRGSAGTAPRRRWDRPPPYVAPPSYEGPHRTLGTKRGPELSRAPTSSAPVPATTRTEGGRTKKRLDPRIYRDVLGAWGLRQGRGLLGGAPGCTAARARPESCKGAIEKSSGLVAAGLNSAGDSHSQGKTTGGPGTDAALSRSAISSPPRPVPRSRQHLRGSRKGKEGSEQIWLPTCWLASPKKPPVRHSQTLPRPWAPGGTGWKESLGQREGAEHETLEVWKVTRRAHTLPRISRGPAGREGIFVIDATCVVIKSQYVPTPRTQQGQLVPSGESCSVSDSLSQPKPCHEEEGEGAAANPSVCQKRLLSSRVLNQPSEGRECEAEVGQQGDSSLEERSSSGLGFPVGEVNPRDAPTQPGSQEHPTLGPAAPVCAGSLKGSEAAGVPRRAGGGWARTPGPYAGALREAVSRIRRHTAPDSDSDEAEDLSVHSGSSDGSDTDAPGASWRNERTLPALGNTRPREGGKTAGLSDSIREIVDVISQTEEGFIREDTRKTPQGNRERE
B7: sp¦O35449¦PRRT1_MOUSE (protein, UniProt O35449 1-306, looked up)
Proline-rich transmembrane …: MSSEKSGLPDSVPHTSPPPYNAPQPPAEPPIPPPQTAPSSHHHHHHHYHQSGTATLPRLGAGGLASAAASAQRGPSSSATLPRPPHHAPPGPAAGAPPPGCATLPRMPPDPYLQETRFEGPLPPPPPAAAAPPPPAPAPTAQAPGFVVPTHAGAVGTLPLGGYVAPGYPLQLQPCTAYVPVYPVGTPYAGGTPGGPGVTSTLPPPPQGPGLALLEPRRPPHDYMPIAVLTTICCFWPTGIIAIFKAVQVRTALARGDLVSAEIASREARNFSFISLAVGIAAMVLCTILTVVIIIAAQHHENYWDP
B8: sp¦Q9JK53¦PRELP_MOUSE (protein, UniProt Q9JK53 22-378, looked up)
Prolargin: QPTRPKPGIRRKPKPRPTPRFPQAPEPAEPTDLPPPLPPGPPSVFPDCPRECYCPPDFPSALYCDSRNLRRVPVIPPRIHYLYLQNNFITELPLESFQNATGLRWVNLDNNRIRKVDQRVLGKLPSLAFLYMEKNQLEEVPSALPRNLEQLRLSQNLISRIPPGVFSKLENLLLLDLQHNRLSDGVFKADTFQGLKNLMQLNLAHNILRKMPPKVPQAIHQLYLDSNKIETIPNGYFKDFPNLAFIRMNYNKLSDRGLPKNSFNISNLLVLHLSHNKISNVPAISNKLEHLYLNNNSIEKINGTQICPNNLVAFHDFSSDLENVPHLRYLRLDGNFLKPPIPLDLMMCFRLLQSVVI

One assay concerns hippocampal proteins. In words: DIA quantification proteomics, hippocampus of Mdga2+/- vs WT mice. The following applies: Mdga2+/- vs WT mouse hippocampus (HET-HIP-VS-WT-HIP); S3 Table, downregulated DEPs; SE, pvalue and adj_pvalue in own columns c3-c5. Details: species or system mouse. Here is the method: The hippocampus of 1.5–2-month-old Mdga2^ +/− male mice and their WT littermate controls was collected and sent to the BGI company for DIA quantification proteomics and data analysis. Briefly, samples were lysed and sonicated. After centrifugation, the supernatant was taken for quantification. Equal amounts of proteins (100 μg) per sample were subjected to trypsin enzymatic hydrolysis. After dryness, 10 μg enzymatic peptides per sample were separated by high-pH fractionation into a total of 10 fractions using high-performance liquid chromatography (HPLC) and freeze-dried. Data-dependent acquisition (DDA) fractions and DIA samples were analyzed by nano-LC–MS/MS. DDA data was identified by Andromeda search engine within MaxQuant. Identified results were used by Spectronaut^TM for spectral library construction. For DIA data, Spectronaut^TM used the constructed spectral library information to complete deconvolution and extraction, and used the mProphet algorithm to complete analytical quality control for obtaining reliable quantitative results. The mass spectrometry proteomics data have been deposited to the ProteomeXchange Consortium via the PRIDE [62] partner repository with the dataset identifier PXD050810. DEPs between comparison groups were identified based on the quantitative results, using the fold change >1.1 and p-value <0.05 as the criteria. After retrieval from the UniProtKB database, identified DEPs were processed for GO analysis by using DAVID (https://david.ncifcrf.gov/home.jsp) and Metascape database (https://metascape.org/gp/index.html).
As to B1, the log2FC is listed as -1.342.
On the same count and under the same terms, the same measure for B2: -1.359.
Still for that read-out and setting: the same measure for B3: -1.393.
Still for that read-out and setting: the same measure for B4: -1.4.
For the molecule B5, the log2FC was -1.366.
Take B6: the log2FC is recorded as -1.4022.
Molecule B7 had a log2FC of -1.273.
Still for that read-out and setting: the same measure for B8: -1.413.

Staying with this assay, now noted: regulation class of the protein, HET-HIP-VS-WT-HIP; S3 Table, downregulated DEPs.
As to B1, the Class entry is “Down”.
Take B2: the Class result is recorded as “Down”.
For the molecule B3, the Class entry is recorded as “Down”.
On to B4, for which the Class entry is “Down”.
Still for that read-out and setting: the same measure for B5: “Down”.
Consider B6, for which the Class entry is listed as “Down”.
Take B7: the Class result is given as “Down”.
The same measure, in the same setting: the same measure for B8: “Down”.

For the origin of these results see publication PMC11960969, “Mdga2 deficiency leads to an aberrant activation of BDNF/TrkB signaling that underlies autism-relevant synaptic and behavioral changes in mice” (PLOS Biology, 2025).
